Measured values from patent US20220227863A1 (BLUEFIN BIOMEDICINE, published 2022).

target: T1, recombinant human ILT3 ectodomain with C-terminal histidine tag (human, UniProt Q8NHJ6 22-259); assay: BLI (Octet Red), antibody on Protein A biosensors, recombinant ILT3 in solution
T1 construct: also called recombinant ILT3; hILT3; not shown: C-terminal histidine tag
T1 sequence (Q8NHJ6 22-259 D223G): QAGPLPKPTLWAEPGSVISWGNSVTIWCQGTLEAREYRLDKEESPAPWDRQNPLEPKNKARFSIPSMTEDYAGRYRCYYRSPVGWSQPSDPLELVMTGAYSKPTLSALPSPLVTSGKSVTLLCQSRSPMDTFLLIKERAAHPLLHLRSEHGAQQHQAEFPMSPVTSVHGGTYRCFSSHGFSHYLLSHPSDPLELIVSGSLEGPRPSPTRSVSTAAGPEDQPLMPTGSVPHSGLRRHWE

Kd [nM]	Binder
75	14E7_27C1 (antibody, V domains shown, Recombinant antibody from CHO cells) VH: QVQLQESGPGLVKPSETLSLTCTVSGGSISSYYWSWIRQPPGKGLEWIGYIYYSGSTNYNPSLKSRLTISVDTSKNQFSLKLSSVTAADTAVYYCARRGYSYGYYYGMDVWGQGTTVTVSS VL: DIQMTQSPSSLSASVGDRVTITCRASQDISNYLAWYQQKPGKVPKLLISPASTLQSGVPSRFSGSGSGTDFTLTISSLQPEDVATYYCQKYNSAPWTFGQGTKLEIK
1	11H10_27D4 (antibody, V domains shown, Recombinant antibody from CHO cells) VH: QVQLVESGGGVVQPGRSLRLSCAASGFTFSNYGIHWVRQAPGKGLEWVAVIWFDGNNKYYADSVKGRFTISRDNSKNTLYLQMNSLRAEDTAVYYCARDVITLVRGVPFDYWGQGTLVTVSS VL: DAVVTQESALTTSPGETVTVTCRSSTGAVTTSNYANWVQEKPDHLFTGLIGGINNRAPGVPARFSGSLIGDKAALTITGAQTEDEAIYFCALWYSNHWVFGGGTKLTVLG
1	16B10_27D2 (antibody, V domains shown, Recombinant antibody from CHO cells) VH: QVQLVESGGGVVQPGRSLRLSCAASGFTFNNYGMHWVRQAPGKGLEWVAIIWNDGSNPYYADSVKGRFTISRDNSKNTLYLQMNSLRAEDTAVYYCVRDSSSWFVNYFDYWGQGTLVTVSS VL: EIVMTQSPATLSVSPGERATLSCRASQSVNRNLAWYQQKPGQAPRLLIYGASTRATGIPASFSGSGSGTEFTLTISSLQSEDFAVYYCQHYNHWPLTFGGGTKVEIK
2	5E3-24B4 (antibody, V domains shown, Recombinant antibody from CHO cells) VH: QVQLQESGPGLVKPSETLSLTCTVSGGSISSHYWNWIRQPPGKGLEWIGYIHYSGGTNYNPSQKSRVTISVDTSKNQFSLKLSSVTAADTAVYYCAGRRYYFDSSGYLDYWGQGTLVTVSS VL: DIQMTQSPSSLSASVGDRVTITCRASQGISNYLAWYQQKPGKIPKLLIYAASTLQSGVPSRFSGSGSGTDFTLTISSLQPEDVATYYCQKYNSAPWTFGQGTKLEIK
3	17F4_27C6 (antibody, V domains shown, Recombinant antibody from CHO cells) VH: QVQLVESGGGVVQPGRSLRLSCAASGFTFSTYGIHWVRQAPGKGLEWVAVIWFDGSNKYYADSVKGRFTISRDNSKNTLYLQMNSLRAEDTAVYYCARDVISMVRGVPFDYWGQGTLVTVSS VL: DAVVTQESALTTSPGETVTLTCRSSTGAVTTSNYANWVQEKPDHLFTGLIGGINNRVPGVPARFSGSLIGDKAALTITGAQTEDEAIYFCALWYSNHWVFGGGTKVTVLG
2	10A5_24A2 (antibody, V domains shown, Recombinant antibody from CHO cells) VH: QLQLQESGPGLVNPSKTLSLTCNVSGGSMSNYFWSWIRQPPGKGLEWIGYIYNSGNTNYHPSLQSRVTISVDTSKNLFSLKLTSVTAADTAVYYCARRGGYYGSGNYGGLDVWGHGTTVTVSS VL: DIQMTQSPSSLSASVGDRVTITCRASQGISNYLAWYQQKPGKVPKLLIYAASTLQSGVPSRFSGTGSGTDFTLTISSLQPEDVATYYCQKYDSAPWTFGQGTKVEIK
10	8E11B6 (antibody, V domains shown) VH: QVQLEESGGGVVQPGRSLRLSCAASGFTFSSYGMHWVRQAPGKGLEWVAVIWYDGSNTYYADSVKGRFTISRDNSKNTLYLQMNSLRAEDTAVYYCARERETFFYVMDAWGQGASVTVSS VL: DIQMTQSPSTLSASVGDRVTITCRASQSISSWLAWYQQKPGKAPKLLIYKASSLESGVPSRFSGSGSGTEFTLTISSLQPDDFAIYYCQQFNRFITFGQGTRLEIK
1	6H9_27D5 (antibody, V domains shown, Recombinant antibody from CHO cells) VH: QVELQQSGPGLVKPSETLSLTCTVSGGSISTYFWSWTRQPPGKGLEWIGYTNYRGNTNYNPSLESRVTISVDTSKNQFSLKLSSVTAADTAVYYCARRGGYYGSGNYGGMDVWGQGTTVTVSS VL: DIQMTQSPSSLSASVGDRVTITCRASQGISNYLAWYQQKPGKVPKLLIYAASTLQSGVPSRFSGSGSGTDFTLTISSLQPEDLATYYCQKYDSAPWTFGQGTKLEIK

The remaining lines, values behind:

Binder	Kd [nM]
1E2F12H8_3D2 (antibody, V domains shown) VH: EVQLLESGGGLVQPGGSLRLSCAASGFTFSSYAMSWVRQAPGKGLEWVSIISGSGGDTYYADSVKGRFTISRDNSKNTLYLQMNSLRAEDTAVYYCAKTDDHGDFFDYWGQGTLVTVSS VL: not shown	6
1E12H10_7A1 (antibody, V domains shown) VH: QVQLVESGGGVVQPGRSLRLSCATSGFTFSSYGMHWVRQAPGKGLEWVALIWFDGGNQYYADSVKGRFTISRDNSKNTLYLQLNSLRAEDTAVYFCARDVISMVRGVPFDYWGQGTLVTVSS VL: DAVVTQESALTTSPGETVTLTCRSSTGAVTTGNYANWVQEKPDHLFTGLIGGIKNRVPGVPARFSGSLIGDRAALTITGAQTEDEAIYFCALWYSNHWVFGGGTKLTVLG	3
20H6_24C3 (antibody, V domains shown, Recombinant antibody from CHO cells) VH: QVQLQESGPGLLKPSETLSLTCTVSGGSISPYYWSWIRQPPGKGLEWIGYIYYSGNTNYNPSLQSRLTISVDTSKNQFSLKLSSVTAADTAVYYCARRGYSFGFYYGLDVWGQGTTVTVSS VL: DIQMTQSPSSLSASVGDRVTITCRASQDISIYLAWYQQKPGKVPNLLIYLASTLQSGVPSRFSGSGSGTDFTLTISSLQPEDVATYYCQKYNSAPWTFGQGTKLEIK	1
8C7_24B1 (antibody, V domains shown, Recombinant antibody from CHO cells) VH: QVQLQESGPGLVKPSETLSLTCTVSGGSISSYYWSWIRQPPGKGLEWIGYIHYSGSTNYNPSLKSRVTISEDTSKNQFSLKLSSVTAADTAVFYCAGRRYYYDSSGYLDYWGQGTLVTVSS VL: DIQMTQSPSSLSASVGDRVTITCRASQGISNYLAWYQQKPGKVPKLLIYAASTLQSGVPSRFSGSGSGTDFTLTISSLQPEDVATYYCQKYNSAPWTFGQGTKLEIK	60
4F4_27D3 (antibody, V domains shown, Recombinant antibody from CHO cells) VH: QVQLQESGPGLVKPSETLSLTCTVSGGSISSHYWSWIRQPPGKGLEWIGYIYYNGGTNYKPSLKSRVTISVDTSKNQFSLKLTSVTAADTAVYYCAGRRYYYDSSGYLDYWGQGTLVTVSS VL: DIQMTQSPSSLSASVGDRVTITCRASQGISNYLAWYQQKPGKVPKLLIYAASTLQSGVPSRFSGSGSGTDFTLTISSLQPEDVATYYCQKYNSAPWTFGQGTKLEIK	30
17E8_27C5 (antibody, V domains shown, Recombinant antibody from CHO cells) VH: QVQLVESGGGVVQPGRSLRLSCAASGFTFSNYGMHWVRQAPGKGLEWMAGIWFDGTNKYYIDSVKGRFTISRDNSKNTLYLQMNNLRAEDTAVYYCARDVISMVRGVPFDYWGQGTLVTVSS VL: DAVVTQESALTTSPGETVTLTCRSSTGAVTTSNYANWVQEKPDHLFTGLIGGINNRAPGVPARFSGSLIGDKAALTITGAQTEDEAIYFCALWYSNHWVFGGGTKLTVLG	2
7C12_24A6 (antibody, V domains shown, Recombinant antibody from CHO cells) VH: QVQLQESGPGLVNPSKTLSLTCTVSGGSISSYFWSWIRQPPGKGLEWIGYIYDSGSTNYNPSLKSRVTISVDTSKNHFSLKLSSVTAADTAVYYCARRGGYYGSGSYGGMDVWGQGTTVTVSS VL: DIQMTQSPSSLSASVGDRVTITCRASQGISNYLAWYQQKPGKVPKLLISAASTLQSGVPSRFSGSGSGTDFTLTISSLQPEDVATYYCQKYNSAPWTFGQGTKLEIK	50
1C4_24B3 (antibody, V domains shown, Recombinant antibody from CHO cells; also called 1C4_24B4) VH: QVQLQEAGPGLVNPSKTLSLTCTVSGGSISSYFWSWIRQPPGKGLEWIGYIYNSGSTNYNPSLQSRVTISVDMSKNHFSLKLSSVTAADTAVYYCARRGGYYGSGNYGGMDVWGQGTTVTVSS VL: DIQMTQSPSSLSASAGDRVTITCRASQGISNYLAWYQQKPGKVPKLLMYAASALQSGVPSRFSGSGSGTDFTLTISSLQPEDVATYYCQKYDSAPWTFGQGTKVEIK	12
3D8D11 (antibody, V domains shown, Recombinant antibody from CHO cells) VH: QVQLQESGPGLVKPSETLSLTCTVSGGSISSYFWSWIRQPPGKGLEWIGYIYYSGSTNYNPSLKSRVTISVDTSKNQFSLKLSSVTAADTAVYYCARRGGYSYGYGYYGMDVWGQGTTVTVSS VL: DIQMTQSPSSLSASVGDRVTITCRASQGISNYLAWYQQKPGKVPKLLIYAASTLQSGVPSRFSGSGSGTDFTLTISSLQPEDVATYYCQKYNSAPWTFGQGTKLEIK	170
3H3_24B2 (antibody, V domains shown, Recombinant antibody from CHO cells) VH: QIQLQESGPGLVNPSKTLSLTCTVSGGSIRSYFWSWIRQPPGKGLEWIGYIYDSGNTNYNPSLKSRVTISVDTSKNHFSLKLSSVTAADTAVYYCARRGGYYGSGNYGGMDVWGQGTTVTVSS VL: DIQMTQSPSSLSASVGDRVTITCRASQGISNYLAWYQQKPGKVPKLLIYAASTLQSGVPSRFSGSGSGTDFTLTISSLQPEDVATYYCQKYNSAPWTFGQGTKLEIK	40
5A2_24A1 (antibody, V domains shown, Recombinant antibody from CHO cells) VH: QVQLQESGPGLVNPSKTLSLTCTVSGGSISRYFWSWIRQPPGKGLEWIGYIYDSGSTNYNPSLKSRVTISVDTSKNHFSLKLSSVTAADTAVYYCARRGGYYGSGSYGGMDVWGQGTTVTVSS VL: DIQMTQSPSSLSASVGDRVTITCRASQGISNYLAWYQQKPGKIPKLLISAASTLQSGVPSRFSGSGSGTDFTLTISSLQPEDVATYYCQKYDSAPWTFGQGTKVEIK	30
3C4A3_7C5 (antibody, V domains shown) VH: EVQLLESGGGLVQPGGSLRLSCAASGFTFSSYAMSWVRQAPGKGLEWVSVISGSGGSTYYADSVKGRFTISRDNSKNTLDLQMNSLRAEDTAVYYCAKLGDYYYGMDVWGQGTTVTVSS VL: not shown	21

target: T2, recombinant cynomolgus monkey ILT3 ectodomain with C-terminal histidine tag (cynomolgus monkey); assay: as above
T2 construct: extracellular domain; Non-native signal peptide; expressed in CHO cells
Protocol: (§1) Affinity: The affinity of antibodies to recombinant ILT3 was determined on an Octet Red™ (Pall, ForteBio) instrument. After loading reagents into a 96-well plate, the Octet Red™ with Protein A-conjugated biosensors was programmed as follows: 30 seconds for baseline #1; 45 seconds to immobilize the antibody; 30 seconds for baseline #2; 300 seconds for association of antibody to recombinant ILT3; and 300 seconds for dissociation of recombinant ILT3 from the antibody. In some cases, the antibody affinity was estimated against cynomolgus ILT3 using a flow based method. Briefly, the assay uses 3-5 fold dilutions from 100 nM to 0.1 nM of a stock antibody concentration (100 nM) diluted in flow buffer. […] Acquisition of the MFI (Median Fluorescent Intensity) was performed on a MACSQuant® Flow Cytometers (Miltenyi Biotec).

Binder	Kd [nM]
1E2F12H8_3D2 (antibody, V domains shown) VH: EVQLLESGGGLVQPGGSLRLSCAASGFTFSSYAMSWVRQAPGKGLEWVSIISGSGGDTYYADSVKGRFTISRDNSKNTLYLQMNSLRAEDTAVYYCAKTDDHGDFFDYWGQGTLVTVSS VL: not shown	27
1E12H10_7A1 (antibody, V domains shown) VH: QVQLVESGGGVVQPGRSLRLSCATSGFTFSSYGMHWVRQAPGKGLEWVALIWFDGGNQYYADSVKGRFTISRDNSKNTLYLQLNSLRAEDTAVYFCARDVISMVRGVPFDYWGQGTLVTVSS VL: DAVVTQESALTTSPGETVTLTCRSSTGAVTTGNYANWVQEKPDHLFTGLIGGIKNRVPGVPARFSGSLIGDRAALTITGAQTEDEAIYFCALWYSNHWVFGGGTKLTVLG	200
3C4A3_7C5 (antibody, V domains shown) VH: EVQLLESGGGLVQPGGSLRLSCAASGFTFSSYAMSWVRQAPGKGLEWVSVISGSGGSTYYADSVKGRFTISRDNSKNTLDLQMNSLRAEDTAVYYCAKLGDYYYGMDVWGQGTTVTVSS VL: not shown	56

target: T3, cynomolgus ILT3 expressed on HEK293 cells (Macaca fascicularis (cynomolgus monkey)); assay: flow cytometry, serial antibody dilutions on live HEK293 cells expressing cynomolgus ILT3, Alexa Fluor 647 anti-human IgG secondary, MFI
T3 construct: whole, on cells; also called Macaca fascicularis ILT3 homologue; macaque ILT3 homologue
Protocol: as §1

Binder	EC50 (read off the curve) [nM]
1E2F12H8_3D2 (antibody, V domains shown) VH: EVQLLESGGGLVQPGGSLRLSCAASGFTFSSYAMSWVRQAPGKGLEWVSIISGSGGDTYYADSVKGRFTISRDNSKNTLYLQMNSLRAEDTAVYYCAKTDDHGDFFDYWGQGTLVTVSS VL: not shown	~6
